Measurements from PMC4792071 (The Journal of Cell Biology, 2016).
Residue numbers refer to the chain shown, from its start. Blank lines part the entries; values can stand above or below the binder they belong to.

Key:
[1] = biological target: T1, Arl2^Q70L-Venus (Drosophila melanogaster, UniProt Q06849 1-184, Q70L); experiment: co-IP
T1 sequence (looked up): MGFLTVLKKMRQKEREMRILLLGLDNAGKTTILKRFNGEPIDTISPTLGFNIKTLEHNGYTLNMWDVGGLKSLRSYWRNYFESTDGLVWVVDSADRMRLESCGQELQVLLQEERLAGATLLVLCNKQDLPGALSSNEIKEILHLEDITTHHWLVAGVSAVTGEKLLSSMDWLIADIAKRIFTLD

[2] = biological target: T2, Arl2^T30N-Venus (Drosophila melanogaster, UniProt Q06849 1-184, T30N); experiment: co-IP
T2 sequence (looked up): T1 sequence (looked up) with T30N, L70Q

fold amount co-precipitated, against Arl2^T30N-Venus [1]: ~9.6 fold
B1: HA-TBCC (natural protein, Drosophila melanogaster, UniProt Q7KU40 1-355, looked up)
chain: MEGDAENRKDQILERLNKRNKDRQNYLDVKSELRSKETVQNEGVDYFYQTFSQKTMDIEQRLKDVQCGDGQPTDLARNFADITVEIQDLQRYLTASTMFLPDFKIKSCQNILNTLTAVSDETRQRLLPKKKFGFSGKKTVTKPKVPPNKDIVDAKLSKVPEKLGSNFTWTIANRTNEHIVLDSAKVNGQDITISKLNHCLVELQGHPGSVQVSRASKCTLLCGPIARSFFAENLEDCTLSIACQQLRLHSSRSIRIYMHVTCRAIIEDCKSIEIGEYNYDYSKLEADYLASGLNKAQNNYTDVADFNWLSPDVPSPNWSLLKDYPDPNWNALRRDFIANNHNSELKQDVKDISII

fold amount co-precipitated, against Arl2^Q70L-Venus [2]: ~3.1 fold
B2: HA-TBCE (natural protein, Drosophila melanogaster, UniProt A1Z6J5 1-523, looked up)
chain: MVGIIDEVQLFYPLGTRIKIGDNYGTVRYVGEVSGHMGSWLGIEWDDGLRGKHNGIVDGKRYFQTQTPTGGSFIRPGKVGPCATLEDAARERYLNYDSSNVDESLIREAQASLQASLFEVVGMDKIARKQSKFEQLEEVSVDQTPVNAAGYLKELTHLTTLNVSHTLIWNWEIVASIAQQLPSLTNLNLSSNRLVLPTSSQITELEPSFRQLKRINLRSCGFSDWKDVMHTALLWPNILSLGLQENSLGQLAEVDRTKIFKQLHELDLHRTNIMDFDQVTKLGNLTTLRLLNIMENGIEEIKLPDCDSQEKLNIFVSLEQLNLLHNPIWNEADAFNELDKLPQLKRLSKTPHLKSNFDEMFSKAVASIASLQFINKAEVTAEQRRGAEYDIWKKYALDWMQATQGGTDSLREFCRRHRTYPLLVKKYGSPADFVPRSQAKQSNLINVSIRHQLTGETWEKKVPRMITVQTLQGLVMKRFRLSGDVPQLCYVDALHPDLVVPLDNNAKTLDFYSVQEHDTVLVQ
